{"source": "patent US20240279618A1", "about": "“RECEPTOR TYROSINE KINASE AGONIST, COMPOSITION FOR CELL CULTURE MEDIUM, AND […] MAINTENANCE COMPOSITION” (SEKISUI CHEMICAL CO., LTD., priority 2021, published 2024)", "key": {"FGFR2-Fc": {"tested_on": "FGFR2-Fc", "experiment": "SPR affinity of VHH (monomer) for FGFR2-Fc", "assay_type": "binding, human", "conditions": "same manner as Example 5", "experimental": "(§1) The binding activity of VHH Clone #1 or VHH Clone #2 immobilized on Series S Sensor Chip CAP (manufactured by Cytiva) with respect to FGFR1-Fc was measured using Biacore (registered trademark) T200 (manufactured by Cytiva). Measurement was performed by CAP Single-cycle Kinetics. The temperature was set to 25° C. As a running buffer, 10 mM HEPES (pH 7.4) (Cytiva) including HBS-EP+(150 mM NaCl, 0.5 mM EDTA, and 0.05% surfactant P20) was used. The measurement order for each run is as follows.\n(§2) 2) Measurement of binding activity: The flow rate was set to 30 μL/mL, and VHH Clone #1 or VHH Clone #2 each diluted to 1.85 nM, 5.56 nM, 16.67 nM, or 50 nM, using a running buffer, was allowed to have an association time set to 120 seconds for binding and a dissociation time set to 600 seconds for interaction.\n(§3) 3) Regeneration of sensor chip surface: The flow rate was set to 10 μL/mL, a solution in which Reaneration stock 1 and Regeneration stock 2 (manufactured by Cytiva) were mixed at the ratio of 3:1 was added thereto for 120 seconds to extract the immobilized VHH. Next, analysis was performed with a 1:1 binding model using Biacore T200 Evaluation (software version 2.0, manufactured by Cytiva), and the binding activity was calculated.\n(§4) The binding activity of VHH Clone #1 to FGFR2-Fc, FGFR3-Fc, or FGFR4-Fc was measured in the same manner as in Example 5."}, "FGFR3-Fc": {"tested_on": "FGFR3-Fc", "experiment": "SPR affinity of VHH (monomer) for FGFR3-Fc", "assay_type": "binding, human", "conditions": "same manner as Example 5", "experimental": "as §1, §2, §3, §4"}, "FGFR1-DII": {"molecular_target": "T1, FGFR1-DII (Homo sapiens, UniProt P11362)", "T1 construct": "The FGFR1 extracellular domain has DII and DIII domains; made in house; host or cells: AAVpro293T cells", "T1 sequence (P11362 158-246 limits assumed)": "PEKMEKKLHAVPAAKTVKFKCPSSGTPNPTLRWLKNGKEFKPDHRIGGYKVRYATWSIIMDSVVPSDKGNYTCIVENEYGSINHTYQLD", "experiment": "Binding activity by biolayer interference (BLI) to FGFR1-DII", "conditions": "Octet, VHH immobilized", "experimental": "The FGFR1 extracellular domain has DII and DIII domains. Each of an FGFR1 extracellular domains (hereinafter may be abbreviated as “FGFR1-DIIDIII”, “FGFR1-DII”, or “FGFR1-DIII”) was expressed using AAVpro293T cells as follows, these domains were purified, and an affinity measurement test with VHH Clone #1 was performed by a biolayer interference (BLI) method.\nThe binding activities of FGFR1-DIIDIII, FGFR1-DII, and FGFR1-DIII to VHH Clone #1 were measured by a biolayer interference method (hereinafter sometimes abbreviated as “BLI”). In BLI, using Octet 384 (manufactured by Fortebio), VHH Clone #1 diluted with a kinetics buffer (0.05% Tween20-containing PBS, pH 7.4) was immobilized on an Anti-Penta-HIS (HIS1K, manufactured by Fortebio) sensor chip, and bound to FGFR1-DIIDIII, FGFR1-DII, and FGFR1-DIII, which had been adjusted from 100 nM in 2-fold serial dilutions, and the dissociation rate was measured.\nIn the preparation for measurement, a tip of the sensor chip was immersed in 200 μL of the kinetics buffer for 10 minutes in order to hydrate the sensor chip. […]\nAfter completion of the measurements, the measured value of a Reference (only the kinetics buffer) was subtracted from the actual measurement value, and Global Fitting was performed using a 1:1 binding model using Octet software to calculate the binding activity (FIG. 22)."}}}
{"molecule": "VHH Clone #1: alpaca-derived VHH single-domain antibody (monomer) binding FGFR1, amino acid sequence SEQ ID NO: 17 (protein, VHH_Clone_#1) VHH: QLQLVESGGGSVQAGGSLRLSCAASRSLSRFNVWTWYRQAPVKQRELVASITKSGDTNYAESVKGRFIISRDDDKNTVYLQMNNLKSEDTGIYYCAGSYYSGSYLYPSPGGFSVWGQGTQVTVSS", "values": [{"measurement": "ka", "setting": "FGFR2-Fc", "value": 484000, "unit": "M⁻¹ s⁻¹"}, {"measurement": "kd", "setting": "FGFR2-Fc", "value": 0.776, "unit": "s⁻¹"}, {"measurement": "ka", "setting": "FGFR3-Fc", "value": 232000, "unit": "M⁻¹ s⁻¹"}, {"measurement": "kd", "setting": "FGFR3-Fc", "value": 0.235, "unit": "s⁻¹"}, {"measurement": "KD (M)", "setting": "FGFR1-DII", "value": "No Binding"}]}
